Reference: the DeepSol protein solubility set

assay: soluble on expression in E. coli; label from the status in PepcDB or PDB records

Sequence	soluble on expression in E. coli
ARTVVLITGCSSGIGLHLAVRLASDPSQSFKVYATLRDLKTQGRLWEAARALACPPGSLETLQLDVRDSKSVAAARERVTEGRVDVLVCNAGLGLLGPLEALGEDAVASVLDVNVVGTVRMLQAFLPDMKRRGSGRVLVTGSVGGLMGLPFNDVYCASKFALEGLCESLAVLLLPFGVHLSLIECGPVHTAFMEKVLGSPEEVLDRTDIHTFHRFYQYLAHSKQVFREAAQNPEEVAEVFLTALRAPKPTLRYFTTERFLPLLRMRLDDPSGSNYVTAMHREVFGDVPAKAEAGAEAGGGAGPGAEDEAGRSAVGDPELGDPPAAPQ	soluble
MPVKKESNAELDLDWRCRDGSSLVASLQPKPDPQKTGNYRKAKVSTTVSIPTAKATGNAPKYLPPHLRNRQESENKEEDDESECNSDTEKHSVISDQFSDSVDETSVKKIRIHWRGRRWTRGIECIGVQVDSQITRYSKLDDKCVRKSNSGRETTQTGCISDFAFAEVARLLKTPEIELELFAVDVPPFIQGEPRESYFNAMEKTFNLENVTRVNAKRVRLIGLTISEMEAVLKWVSVENLVVIRVYSGKNSIDERGAIVIQNMLSIFPQLQVGSFHMIVSNPLGVAKTFDEIYSDRLVKTPIILKGLDEEPKFNMKITSCDIQVRRESKKKKVTQI	not soluble
MGSDKIHHHHHHMSLSPQASAAPEQGYNFAYLDEQTKRMIRRGLLKAVAIPGYQVPFGGREMPLPYGWGTGGMQVTAAILGADDVLKVIDQGADDTTNAVSIRRFFARTAGVATTERTPEATVIQTRHRIPETALSGEQIMVYQVPIPEPLRFIEPSEAETRTMHALDDYGVMHVKLYEDIATFGHIATSYAYPVTVDERYVMDPSPIPKFDNPKLDMNPALMLFGAGREKRLYAVPPFTRVASLDFEDHPFEVQRWEESCAFCGSHESYLDELIVDDRGGKRFVCSDTDYCTQRRARQEEGEDAQ	not soluble
MSLKSHVRSFKTYIRDEIIKKGGWVNAHAHADRAFTMTPEKIGIYHSSNLQQKWDLVDEVKRTSSVDDYYARFCQSIELMISQGVTAFGTFVDIDPICEDRAIIAAHKAREVYKHDIILKFANQTLKGVIEPTARKWFDIGAEMVDMIGGLPYRDELDYGRGLEAMDILLDKAKSLGIMCHVHVDQFNNPSEKETEQLCDKTIEHGMEGRVVGIHGISIGSHSKEYRYKLYEKMRKAKMMMIACPMAWIDSNRKEDLMPFHNALTPADEMIPEGITVALGTDNICDYMVPLCEGDLWQELSLLAAGCRFPHLDEMVNIASINGRKVLGLELIEGHHHHHH	soluble
SNAMADLLLGVNIDHIATLRNARGTIYPDPVQAAFIAEQAGADGITVHLREDRRHITDRDVRILRQTIQTRMNLEMAVTDEMVDIACDIKPHFCCLVPEKRQEVTTEGGLDVAGQVDKMTLAVGRLADVGILVSLFIDADFRQIDAAVAAGAPYIEIHTGAYADASTVLERQAELMRIAKAATYAAGKGLKVNAGHGLTYHNVQPIAALPEMHELNIGHAIIGQAVMTGLAAAVTDMKVLMREARR	soluble
MSLLITAGVIALGFNFKRFQNEYDWLTLKPEQKLNVPLVNQLPDLPNGCEVTSLAMLLKYYDINVSKLELSSNIKHVSSFVGNNYRGNPHVGFVGYMSIKNAGWCVYNEPLYNVARKYTKRIRNYTGNDFVQVLKLVSKRHPVVIITTLKFDRVNDMQTWSTKQGKVHVTPSSHACVITGYNKKKGIVYVNDPYGVKNKKVSLKKIEASYNQQGKQALYIEEGHHHHHH	soluble
MTAILLHNVAKSYRSYDHPWETLWEVFTKTRRHREWTALHPLSLEIAHGEVVGIVGTNGAGKSTLLKLIAGTLTPSAGDIRVNGHVAALLELGAGFHPDMTGRENVYLGASVMGLSSERVDRLYDGIVEFAGLGEFMDQPVKTYSSGMYMRLAFAVATAADPDVLILDEALSVGDGAFARKSFERIIGYKDAGKTILFCSHSLYQVEAICSRVLWLDHGRLVMDGEPARVVSAYAEFLGGGGEGCGTPDQPAPAAVAGSGVGRLTKVEVEADGVEGRKLTVRSGQTDLTVAVGFASDPALPPPSVGLTITGSNGWAVTSASTSNDGLTISRRPDGSGEVELSFPRFPLLKGAYWVNVFLLCEQGIHLYDRIEHAAELEVVQDGLEQGVVSLPRRWSVNGAPASAVSPTVPTVAAWLEHHHHHH	not soluble
MGSDKIHHHHHHMATTVDTGDRRDNGKSVRRKLPRGAHAEIGNVDRDPVELLKISSEGRVRRLVPLRYGRMIESPFAFYRGSAIVQAHDLAGTPNSGLHIQICGDCHLANFGGFATPERALLFDLNDFDETSRGPWEWDLKRLAASFVVAARHLRHKQGVADDLVYQLVRSYQARMQGYGEMGILDTWYDHITFERLLGEETSPNIQRRIRRGMERAADRTSEALLPKLAERVGDKWTILDAPPAVFHVRGAHTLFDADDDWMTAKDIQAAAEKVYKEYLGTLAPDRQRLLSHFTLHDRAFKVVGVGSVGTRCMIQLMIDSHGKPMFLQIKEATRSVVARYFKGPAVSHDGRRVVEGQRLMQAASDLFLGWTKGPFGRDFYVRQLRDMKLSPQIELMDVEALGRYGALCGWVLARAHAKAGGLAAEISGYLGTSDRMAEVMVGYSNSYADQVEKDYERFVAACRSGRLEARTDADMAADFRV	not soluble
VAADAYLVRRGQETKRGSGKGGASKGTPRGLSVIAGYPWFADWGRDAMIALSGLTLVTGRFEDARELLLTFLGQRRRGLIPNHFDESGQGAGYNTVARPLWLAVALERYARTTGDALFVRQALPMLRELLGSLVQGTDYGIGMDPADALLRAGEPGVQLTWMDVKIHDWVVTPRHGKPVEIQALWLAALGAELRLSQALGEPPRYAAVLERAHHSFKAQFWNHAADLTAAPTATLLGLGQLGSSLGGALSDALDGDFVLDDEPRRDTSSDALLTVGGRPGSGPVQSTTGASELGVGHRPGAAPAQPAVLADVIQPSGEQDLSVRPNAVIALALADTPVVDEQLDAVLAQTERELLTPVGLHTLSPHDPRYLGNYGGPQLLRDAAYHQGTVWPWPLASYVELLLSRGELNRARAALAGLTGHVWEAGIGHVSEVFSGDALTPGGCPFQAWSVAELLR	not soluble
QVQLVESGGGSVQAGGSLRLSCAASGFTYSRKYMGWFRQAPGKEREGVAAIFIDNGNTIYADSVQGRFTISQDNAKNTVYLQMNSLKPEDTAMYYCAASSRWMDYSALTAKAYNSWGQGTQVTVSSRGRHHHHHH	soluble
SRFADAVLDQYIGSIHSLCKDQHGCRFLQKQLDILGSKAADAIFEETKDYTVELMTDSFGNYLIQKLLEEVTTEQRIVLTKISSPHFVEISLNPHGTRALQKLIECIKTDEEAQIVVDSLRPYTVQLSKDLNGNHVIQKCLQRLKPENFQFIFDAISDSCIDIATHRHGCCVLQRCLDHGTTEQCDNLCDKLLALVDKLTLDPFGNYVVQYIITKEAEKNKYDYTHKIVHLLKPRAIELSIHKFGSNVIEKILKTAIVSEPMILEILNNGGETGIQSLLNDSYGNYVLQTALDISHKQNDYLYKRLSEIVAPLLVGPIRNTPHGKRIIGMLHLDS	soluble
MGSDKIHHHHHHMLENTGLVLEGGGMRGVYTGGILEYFMEQDLYFPYVIGVSAGACHAASYLSRQRNRNKTVNIDYASHPKYLSYKNLWRKRQLFDMDFIFHEIPEKHVPFDFETYFNSPERFLVGTTDCETGQSVYFEKEGTNDDALNLLQASSSLPFIAPVVNYRGKQLLDGGISDPIPVRKAQEDGFKKSVVILTRNHGYAKKKSRFGWIAAKAYKKYPNLVNTMLNRYEVYNETLHYIEKEEQAGNLFVIRPEVPLQVDRMEKDTAKLQNLYEQGYEDAKRQFADLKAFLQK	not soluble
MSIESLNAFSMDFFSLKGKTAIVTGGNSGLGQAFAMALAKAGANIFIPSFVKDNGETKEMIEKQGVEVDFMQVGITAEGAPQKIIAACERFGTVDILVNNAGICKLNKVLDFGRADWDPMIDVNLTAAFELSYEAAKIMIPQKSGKIINICSLFSYLGGQWSPAYSATKHALAGFTKAYCDELGQYNIQVNGIAPGYYATDITLATRSNPETNQRVLDHIPANRWGDTQDLMGAAVFLASPASNYVNGHLLVVDGGYLVR	soluble
